The text below walks through data of patent US20230042095A1 (AstraZeneca / MedImmune, published 2023).

One experiment addresses T1, recombinant human gp130 (human, UniProt P40189 23-619, limits assumed).
T1 sequence (looked up): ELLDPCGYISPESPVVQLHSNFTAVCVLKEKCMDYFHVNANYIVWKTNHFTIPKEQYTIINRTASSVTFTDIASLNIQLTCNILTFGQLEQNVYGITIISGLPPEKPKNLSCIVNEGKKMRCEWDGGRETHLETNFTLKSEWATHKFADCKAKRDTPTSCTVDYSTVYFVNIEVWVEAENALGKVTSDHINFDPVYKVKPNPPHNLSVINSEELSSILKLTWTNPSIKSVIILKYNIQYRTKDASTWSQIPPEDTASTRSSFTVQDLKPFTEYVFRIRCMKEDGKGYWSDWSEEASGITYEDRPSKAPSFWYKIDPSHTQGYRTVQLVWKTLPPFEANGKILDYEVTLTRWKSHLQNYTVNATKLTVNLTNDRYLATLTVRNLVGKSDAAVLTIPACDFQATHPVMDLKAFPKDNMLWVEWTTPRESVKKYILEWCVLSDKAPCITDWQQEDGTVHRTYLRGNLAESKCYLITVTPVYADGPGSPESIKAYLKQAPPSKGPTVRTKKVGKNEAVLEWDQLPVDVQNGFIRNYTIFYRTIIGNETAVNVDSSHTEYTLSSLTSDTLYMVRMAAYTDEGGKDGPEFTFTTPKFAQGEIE
Put plainly: ELISA of mAb/LIF complexes on immobilized gp130, read through the antibody part (B09, anti-rat IgG-peroxidase).

In experiment [1] the target is LIF acting on U251 / U-251 glioma cells (endogenous LIF) (human, UniProt P15018 23-202). The experiment can be described thus: cell-based or functional assay.
The next experiment concerns the target T2, recombinant human LIFR (human, UniProt P42702 45-833, limits assumed).
T2 construct: also called hLIFR; LIF receptor
T2 sequence (looked up): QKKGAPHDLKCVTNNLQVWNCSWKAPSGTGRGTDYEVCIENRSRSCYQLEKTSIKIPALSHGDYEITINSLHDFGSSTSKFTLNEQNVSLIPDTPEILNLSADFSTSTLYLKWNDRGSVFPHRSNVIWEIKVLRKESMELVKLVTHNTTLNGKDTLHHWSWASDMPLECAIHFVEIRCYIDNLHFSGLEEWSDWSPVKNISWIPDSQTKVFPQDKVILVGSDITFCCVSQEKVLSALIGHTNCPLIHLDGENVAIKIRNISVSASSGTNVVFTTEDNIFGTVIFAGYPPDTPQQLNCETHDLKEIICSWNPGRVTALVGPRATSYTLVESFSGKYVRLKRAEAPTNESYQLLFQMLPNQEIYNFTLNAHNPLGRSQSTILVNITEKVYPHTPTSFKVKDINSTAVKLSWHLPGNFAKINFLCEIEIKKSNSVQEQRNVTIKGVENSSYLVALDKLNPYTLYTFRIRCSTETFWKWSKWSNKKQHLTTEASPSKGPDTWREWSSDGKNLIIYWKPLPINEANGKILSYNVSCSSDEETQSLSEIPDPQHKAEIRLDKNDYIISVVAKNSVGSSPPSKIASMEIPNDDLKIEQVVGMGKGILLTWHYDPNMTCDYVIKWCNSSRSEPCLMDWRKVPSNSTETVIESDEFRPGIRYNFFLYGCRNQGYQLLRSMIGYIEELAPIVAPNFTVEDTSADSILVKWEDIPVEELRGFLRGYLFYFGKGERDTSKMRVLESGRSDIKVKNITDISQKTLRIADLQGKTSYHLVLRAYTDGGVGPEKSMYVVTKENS
The experiment can be described thus: BLI (Octet RED96), control experiment, h5D8 on anti-human Fc sensor.

The target of the next experiment is T3, huIL-6 (E. coli) (human, UniProt P05231 30-212, limits assumed).
T3 construct: also called human IL-6
Put plainly: BLI (Octet), h5D8 amine-coupled to AR2G sensor, cytokine as analyte.

T3 sequence (P05231 30-212 limits assumed): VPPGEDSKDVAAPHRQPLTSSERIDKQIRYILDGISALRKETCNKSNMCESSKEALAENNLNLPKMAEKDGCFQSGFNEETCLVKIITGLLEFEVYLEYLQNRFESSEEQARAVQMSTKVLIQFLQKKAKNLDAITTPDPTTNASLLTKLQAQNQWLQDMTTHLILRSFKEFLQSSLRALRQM
Sequence of LIF acting on U251 / U-251 glioma cells (endogenous LIF) (P15018 23-202 limits assumed): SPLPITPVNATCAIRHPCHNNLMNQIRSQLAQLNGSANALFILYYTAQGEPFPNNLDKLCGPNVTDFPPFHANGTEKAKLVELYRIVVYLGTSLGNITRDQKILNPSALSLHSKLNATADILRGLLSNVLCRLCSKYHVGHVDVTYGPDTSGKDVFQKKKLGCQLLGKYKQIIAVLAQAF
Method for huIL-6 (E. coli): Kinetics experiments were then performed with the following Dip and Read steps at 30° C., 1000 rpm: vi) 60 seconds Baseline in 1× kinetics buffer; vii) 180 seconds Association of appropriate serial dilutions of a cytokine in 1× kinetics buffer; viii) 300 seconds Dissociation in 1× kinetics buffer; ix) Three Regeneration/Neutralization cycles alternating between 10 mM glycine pH 2.0 and 1× kinetics buffer respectively (5 seconds in each for 3 cycles). Following regeneration, the biosensors were reused for subsequent binding analyses.

B1: human LIF (source not stated) (ligand)
chain: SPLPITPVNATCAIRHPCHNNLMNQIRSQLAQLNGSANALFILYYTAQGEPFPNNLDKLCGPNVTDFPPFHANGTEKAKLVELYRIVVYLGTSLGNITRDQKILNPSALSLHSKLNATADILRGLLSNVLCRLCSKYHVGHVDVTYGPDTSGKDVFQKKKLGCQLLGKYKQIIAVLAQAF
notes: also called hLIF; recombinant human LIF protein
Consider B1, for which, in the experiment with recombinant human gp130, the binding result is listed as “binds”.

B2: h5D8 (humanized 5D8 comprising H2 and L2) (antibody, human IgG1, kappa, V domains shown)
VH: QVQLQESGGGLVKPGGSLRLSCAASGFTFSHAWMHWVRQAPGKGLEWVGQIKAKSDDYATYYAESVKGRFTISRDDSKNTLYLQMNSLKTEDTAVYYCTCWEWDLDFWGQGTMVTVSS
VL: DIVMTQTPLSSPVTLGQPASISCRSSQSLLDSDGHTYLNWLQQRPGQPPRLLIYSVSNLESGVPDRFSGSGAGTDFTLKISRVEAEDVGVYYCMQATHAPPYTFGQGTKLEIKR
notes: also called H2L2; G (H2L2)
On to B2, for which the “IC50 for biological inhibition (pSTAT3), serum starved U-251 cells” value in experiment [1] worked out at 490 picomolar. The binding result in the experiment with recombinant human LIFR and with huIL-6 (E. coli) was “no binding” throughout.
